Data: the supplement of paper PMC12042874
± gives the uncertainty stated by the source.

Assay: amyloid nucleation score (Sup35N fusion, yeast selection) (log enrichment); library NNK1; higher = more nucleation; inactive = no reads after selection
Outline: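 After 24 hours of induction with 100 μM copper sulfate, psi-negative yeast expressing peptides of 20 random codons fused to Sup35N were grown for 7 days at 30°C on medium lacking adenine and uracil. Input and output plasmid inserts were sequenced with Illumina, and sequences with under 100 input reads were discarded. Scores for nucleation are the DiMSum log enrichment of output over input reads, centred on the mode score of non-aggregating sequences.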

| Substance | amyloid nucleation score |
| --- | --- |
| LLHHYGGYELVSDWTIAKF | 0.364 ± 0.31 |
| LLLGYVKSSLPIVGYSRMEG | 0.548 ± 0.35 |
| LLLLCMDARRKRYSSMSACS | 1.02 ± 0.53 |
| LLQAQHSF | 0.208 ± 0.21 |
| LLQVWYFFR | 0.296 ± 0.66 |
| LLRVLFFCFSMRCRVGISVA | 0.86 ± 0.69 |
| LLSIKSKSVFLASYCNILST | 2.71 ± 0.17 |
| LLSLNEMYMTLMGGTVPRVG | -0.076 ± 0.56 |
| LLTMFLFNGSKYFLH | 2.3 ± 0.2 |
| LLVGKMCRWNMSYVG | -0.063 ± 0.28 |
| LLVLMYNCFAIYKNWIF | 0.209 ± 1.2 |
| LLVSFTENNRPDLILQSHLM | -1.2 ± 1.2 |
| LLVSTVRVNGQI | -0.016 ± 0.42 |
| LLWDCVNLEGIEQFYCPHSD | 0.382 ± 0.44 |
| LLYIRVADSRPGDLRWLSEV | -0.106 ± 0.5 |
| LLYYASVLRMKGTECPDGGD | -0.856 ± 2.4 |
| LMGMRPFELHRRRGHGHVLG | -0.019 ± 0.64 |
| LMGSRAGSLTQLIESNTKER | -0.748 ± 1.1 |
| LMHASHFFVGKMFLL | 0.266 ± 0.28 |
| LMKYWYDVHRNESGITSNNI | -1.26 ± 0.42 |
| LMLGKLWFPGMCYESKWELG | -0.181 ± 1 |
| LMLTGRD | -0.462 ± 1.2 |

| Substance | amyloid nucleation score |
| --- | --- |
| LMPLLS | 0.025 ± 0.36 |
| LMQVVGTVGGRQCTVGWFGV | -0.523 ± 0.66 |
| LMWDIWVSYGGAKMSDWSKG | -0.225 ± 0.31 |
| LMWVNLTSVFVRMD | 0.14 ± 0.31 |
| LMWWGMNDSR | -0.025 ± 0.28 |
| LNFWGACLIHYSWQNTIVLV | 2.28 ± 0.16 |
| LNLTCDHSPSYLLIFFLMSI | 0.719 ± 0.2 |
| LNNSGVTTICLAGRVTFCTD | 6.55 ± 0.075 |
| LNRRLGDVEPIYAGLTSQQS | 0.313 ± 0.3 |
| LNRVEYS | 6.843 ± 0.068 |
| LNSAVDMGCFVVNLYMLCIY | 4.22 ± 0.059 |
| LNTAQI | 0.512 ± 0.29 |
| LNTFTVLMLWMLLQNVAFIL | -1.37 ± 2.1 |
| LNVIQPSWDRNFHFEVRFGH | 7.942 ± 0.061 |
| LNVRGITIKLCHFRRIWYAQ | -1.25 ± 0.83 |
| LNYDLWTKILNDVVVVCNRF | -0.185 ± 0.4 |
| LPCLSMKVLDTNYNLPCSKN | -0.458 ± 0.32 |
| LPEEDG | inactive |
| LPKLICIKRASLFNPFLDLM | 0.056 ± 0.24 |
| LPNSMLSSGLGWSSINFF | 1.16 ± 0.7 |
| LPYTHFGDDLIGITQDGLRV | -0.035 ± 0.43 |
| LQASLGNDPSSVRVSSRGNW | -0.468 ± 0.54 |

| Substance | amyloid nucleation score |
| --- | --- |
| LQCSCLTVWLQNRPDQLSPS | 0.1 ± 0.73 |
| LQNIFLKACDWLGCWDVDVM | -0.149 ± 0.93 |
| LQPLLISIKRRFLHYVSQNM | -0.073 ± 0.66 |
| LQQMIRRLVLRFMAATAL | 0.14 ± 0.37 |
| LQWEVSSLNVLRFPRNMERC | 0.289 ± 0.4 |
| LRAPGTMVDRRCRGVWK | 0.356 ± 0.85 |
| LRCTCVECQWKRCESTLGGG | -1.02 ± 2.7 |
| LRDDRFLMKLHYKKQDSSCV | 0.324 ± 0.53 |
| LREFPFYFTISLRITLFMSL | -0.391 ± 0.23 |
| LRFHEGVLGAMFEGSVCVLE | -0.01 ± 1.5 |
| LRGFRFVAIMLSVYRKVKVD | -0.531 ± 0.34 |
| LRITYMSLVEYG | 1.35 ± 0.69 |
| LRLLFLNNSATCLVTHVGNQ | 1.38 ± 0.74 |
| LRNHASVPV | 0.084 ± 0.4 |
| LRRVRMEWSVVMHGQSENPE | 1.2 ± 0.35 |
| LRSSVDLTRGESYNSGKFFN | 0.435 ± 0.32 |
| LRTMIVLGFSTWDTCIGSES | -0.537 ± 0.28 |
| LRTRDQSGFSAVIYSKNPRA | 0.106 ± 0.51 |
| LRTWDSIFYDLMGACGRPWV | -0.521 ± 0.54 |
| LRVCNLFCL | 7.912 ± 0.046 |
| LRVHDHDRMSDKMRYCNPFC | 1.76 ± 0.42 |
| LRVSYWQDLAVLYLDSPLGL | -0.358 ± 0.87 |

| Substance | amyloid nucleation score |
| --- | --- |
| LRVYHSYFFSWSSTSLLPAG | 0.219 ± 0.76 |
| LRYDVPRWLGFSEWHF | -0.833 ± 1 |
| LRYSIISLAANSKTADG | 0.663 ± 0.7 |
| LSAFNWQGDVNLRECYNVY | -0.337 ± 0.63 |
| LSAVPSNGHNNGGYVKSDVS | -0.766 ± 1.4 |
| LSCLRSYVTMHMGIIGYLFN | 0.218 ± 0.27 |
| LSDRIAYVVRGC | 0.137 ± 0.43 |
| LSFSMGYNYELATTKWSVVF | 1.3 ± 0.41 |
| LSGCEGVPLNLMYLDSKMSR | -0.106 ± 0.74 |
| LSHSEDVSQETTIYPNLSCN | -0.533 ± 0.68 |
| LSIEQTLQEAGILDYPSRIT | -0.155 ± 0.35 |
| LSIMVCVICSYMVKMVVTGI | inactive |
| LSIRNTSTSRITTLFLGL | 1.88 ± 0.4 |
| LSKISTVK | -0.778 ± 0.64 |
| LSLSMPYSGVLSELYAIATF | -0.384 ± 0.27 |
| LSMKSHFWKMMFTGNWSYVC | inactive |
| LSPLDIPTRDLPIFLTFKDT | inactive |
| LSQFD | 1.17 ± 0.41 |
| LSRVKSR | 1.29 ± 0.62 |
| LSSTDFLGSDVDCFGNCNFL | 3.48 ± 0.13 |
